Where no end group is shown, it is not given here.
Experiments:
[1] = biological target: T1, GABARAP(ΔG116)–NHNH methyl-fumarate 2 (UniProt O95166 1-115, C-terminal acyl hydrazide: -NHNH methyl fumarate (mimics the native glycine G116)); assay: cross-linking; competition: probe 2 (15 μM) incubated with ATG3 C1 in the presence of increasing amounts of LIR^ATG3 peptide; GABARAP–ATG3 C1 complex quantified by gel densitometry, normalized to the reaction without peptide; IC50 by nonlinear regression; details: both partners purified
T1 construct: GABARAP; GABARAP(ΔG116): the C-terminal glycine G116 is deleted, so the chain ends at residue 115; it may fit a chain without the first methionine (surmised); also called probe 2; GABARAP methyl fumarate; not shown: Mxe GyrA intein, C-terminal, cleaved
T1 sequence (O95166 1-115, stated change not applied): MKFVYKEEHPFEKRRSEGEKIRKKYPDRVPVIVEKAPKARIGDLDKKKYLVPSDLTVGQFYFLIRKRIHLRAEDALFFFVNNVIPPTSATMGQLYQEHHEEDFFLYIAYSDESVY

GABARAP = biological target: T2, GABARAP (UniProt O95166 2-116); assay: fluorescence polarisation; fluorescein-modified LIR^ATG3 peptide (linear, cyclized or truncated 103–111) with GABARAP or LC3A; triplicates; KD by nonlinear regression; details: both partners purified
T2 construct: GABARAP as used in fluorescence polarization and in the cocrystal
T2 sequence (O95166 2-116): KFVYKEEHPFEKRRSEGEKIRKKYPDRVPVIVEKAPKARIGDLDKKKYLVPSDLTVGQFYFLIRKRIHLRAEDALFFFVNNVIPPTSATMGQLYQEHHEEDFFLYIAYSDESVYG

Row | IC50 [1] [µM] | binding result (GABARAP) | Binder
1 | 104 | – | LEAIIEEDDGDGGWVDTYH (peptide, UniProt Q9NT62 94-112, looked up, ATG3, human, LIR motif stretch L94-H112; also called linear LIR^ATG3 peptide 5; source: synthetic peptide (chemically prepared)) [LIR (L94-H112) peptide 5]
2 | – | binds | GDGGWVDTY (peptide, UniProt Q9NT62 103-111, looked up, also: fluorescein, position not given here, ATG3, human, amino acids G103-Y111 including the core LIR motif; also called truncated peptide) [fluorescein-modified truncated (103–111) LIR^ATG3 peptide]
3 | 24 | – | LEAIIEEDDGDGGWVDTYHC (thioether (positions not given here); not fully specified (bridges); also: cyclized by selective cysteine alkylation, partner of Cys not given here) [Cyclic peptide 6]

Source: PMC10214526 (ACS Central Science, 2023)
